Several values for one entry are separate records, joined by “and”; a condition that tells them apart may be missing. Identical values can stand only once. Like-named read-outs stand apart in the source and are kept apart here.
B1: Ufo1UIMs, Ufo1 fragment of residues 547-668 comprising three UIM motifs (domain or fragment, UniProt Q04511 547-668, looked up)
chain: DEDEQLRRALEESQLIYETQTNSSANHGNNTNDEIDEDDEEFLRAIRQSRVEDERRRHLRNHTTGRRNGPLSDDNFATYGAAESSERTSTENTIGSSVGVDASNNVDEDLQLAIALSLSEIN
B2: full-length (FL) Ddi1 protein from Saccharomyces cerevisiae (natural protein, S. cerevisiae, UniProt P40087 1-428, looked up)
chain: MDLTISNELTGEIYGPIEVSEDMALTDLIALLQADCGFDKTKHDLYYNMDILDSNRTQSLKELGLKTDDLLLIRGKISNSIQTDAATLSDEAFIEQFRQELLNNQMLRSQLILQIPGLNDLVNDPLLFRERLGPLILQRRYGGYNTAMNPFGIPQDEYTRLMANPDDPDNKKRIAELLDQQAIDEQLRNAIEYTPEMFTQVPMLYINIEINNYPVKAFVDTGAQTTIMSTRLAKKTGLSRMIDKRFIGEARGVGTGKIIGRIHQAQVKIETQYIPCSFTVLDTDIDVLIGLDMLKRHLACVDLKENVLRIAEVETSFLSEAEIPKSFQEGLPAPTSVTTSSDKPLTPTKTSSTLPPQPGAVPALAPRTGMGPTPTGRSTAGATTATGRTFPEQTIKQLMDLGFPRDAVVKALKQTNGNAEFAASLLFQ
B3: Ddi1UBL, ubiquitin-like (UBL) domain of DNA-damage-inducible 1 protein (Ddi1) from Saccharomyces cerevisiae, residues 2-80 (domain or fragment, S. cerevisiae, UniProt P40087 2-80, looked up)
chain: DLTISNELTGEIYGPIEVSEDMALTDLIALLQADCGFDKTKHDLYYNMDILDSNRTQSLKELGLKTDDLLLIRGKISNS

What was measured:
[1] = biological target: T1, ubiquitin (Ub), monomeric, wild type (UniProt P0CG48 1-76); assay: NMR titration
[2] = biological target: T1, ubiquitin (Ub), monomeric, wild type; assay: NMR titration; remark: listed apart in the source

Binder	Kd [1]	Kd [2] [µM]	binding result [1]	stoichiometry N [1]
B1	237 ± 52 µM	–	–	–
TFPEQTIKQLMDLGFPRDAVVKALKQTNGNAEFAASLLFQ (domain or fragment, S. cerevisiae, UniProt P40087 389-428, looked up) [Ddi1UBA, ubiquitin-associated (UBA) domain of Ddi1 from Saccharomyces cerevisiae, residues 389-428]	150 ± 16 µM	291 ± 13	–	–
B2	–	–	binds	–
B3	45 µM and 71 µM	175 ± 25	–	1

From publication PMC4448915 (Structure (London, England : 1993), 2015)
